Results reported in paper PMC8629256, “Structural and functional studies of D109A human αB-crystallin contributing to the development of cataract and cardiomyopathy diseases” (PLoS ONE, 2021).
Changes are numbered by the printed parent chain. In names and notes the source's numbering stands.

B1: wild-type human αB-crystallin (natural protein)
chain: MDIAIHHPWIRRPFFPFHSPSRLFDQFFGEHLLESDLFPTSTSLSPFYLRPPSFLRAPSWFDTGLSEMRLEKDRFSVNLDVKHFSPEELKVKVLGDVIEVHGKHEERQDEHGFISREFHRKYRIPADVDPLTITSSLSSDGVLTVNGPRKQVSGPERTIPITREEKPAVTAAPKK
notes: human αB-crystallin (HSPB5), 175 amino acids, coded by CRYAB; cDNA cloned in pET-28b(+); Polydisperse oligomer; 32 subunits is the number worked out for the majority species in AUC (about 650 kDa); also called heat shock protein β5; HSPB5; source: E. coli BL21 (DE3), purified (DEAE-cellulose anion exchange in urea buffer, dialysed against water); copies: 32
B2: D109A mutant human αB-crystallin (natural protein)
chain: B1 chain with D109A
notes: human αB-crystallin (HSPB5) with the patient mutation D109A (cDNA 326 A>C), made by site-directed mutagenesis of the wild-type cDNA in pET-28b(+); Polydisperse oligomer; 53 subunits is the number worked out for the majority species in AUC (about 1,060 kDa); larger ensembles of 1500-3000 kDa are also seen; The mutation is reported in patients with myofibrillar myopathy; No tag is named; see the …

Target: the molecule itself
Assay: AUC; sedimentation velocity, 20 °C, 40,000 rpm, 40 mM sodium phosphate, 100 mM NaCl, 1 mM EDTA, 3 mM NaN3, pH 7.0; wild type 1.0 mg/mL, D109A 0.5 mg/mL; c(s) and c(M) by SEDFIT; run after dialysis and again after 24 h at 20 °C; size of the oligomer

Row | Protein | stoichiometry N
1 | B1 | 32 subunits
2 | B2 | 53 subunits
